According to publication PMC7144898 (Nucleic Acids Research, 2020):

Target: T1, Recombinant N-terminal (His)6-tagged P. abyssi ASH-Ski2, full length (Pyrococcus abyssi, UniProt Q9V2M1 1-855)
T1 sequence (looked up): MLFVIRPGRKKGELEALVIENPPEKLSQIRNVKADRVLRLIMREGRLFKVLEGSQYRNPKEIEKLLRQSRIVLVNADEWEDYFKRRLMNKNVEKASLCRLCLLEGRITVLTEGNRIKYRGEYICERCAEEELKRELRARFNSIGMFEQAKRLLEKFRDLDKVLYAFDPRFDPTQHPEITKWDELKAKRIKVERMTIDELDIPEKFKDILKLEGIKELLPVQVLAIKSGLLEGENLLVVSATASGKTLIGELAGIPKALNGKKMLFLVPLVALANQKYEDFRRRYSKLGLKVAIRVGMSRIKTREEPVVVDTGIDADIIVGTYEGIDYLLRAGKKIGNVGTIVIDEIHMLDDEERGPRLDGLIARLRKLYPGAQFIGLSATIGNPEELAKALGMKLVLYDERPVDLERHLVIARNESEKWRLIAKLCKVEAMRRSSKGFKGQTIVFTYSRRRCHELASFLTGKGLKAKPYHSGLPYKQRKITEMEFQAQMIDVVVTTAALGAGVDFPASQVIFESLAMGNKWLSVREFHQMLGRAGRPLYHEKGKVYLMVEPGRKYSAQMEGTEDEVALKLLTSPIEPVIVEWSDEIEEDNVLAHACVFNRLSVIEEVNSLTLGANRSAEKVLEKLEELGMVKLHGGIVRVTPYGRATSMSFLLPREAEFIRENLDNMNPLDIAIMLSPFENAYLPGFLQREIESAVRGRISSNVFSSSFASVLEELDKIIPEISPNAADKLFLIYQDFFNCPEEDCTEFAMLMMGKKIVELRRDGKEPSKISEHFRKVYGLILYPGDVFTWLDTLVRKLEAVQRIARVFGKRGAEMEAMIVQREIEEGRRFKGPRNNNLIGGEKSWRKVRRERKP
Assay: co-sedimentation

binding result: binds
B1: Recombinant aRNase J from P. abyssi with C-terminal (His)6-tag (enzyme, Pyrococcus abyssi, UniProt Q9V076 1-451, looked up)
chain: MWEEINMIKIYTLGGYEEVGKNMTAVEYNGEVVIVDMGIRLDRVLIHEDVEFQKMSSKDLRKLGAIPDDRPIRNKKVVAIALSHGHLDHIGAVGKLAPHYPDVPIYGTPYTIRLAKSEIKGEEYFEVTNPLYETNYGEIVQVSENLAIEFVQITHSIPQSSIVVIHTPEGAVVYACDYKFDNNHPYGERPDYKRLKELGKEGVKVLIAESTRVAEETKTPSEAVAKMLLEDFFLYEGMEADGLIATTFASHIARLQELIEIANKMGRQAIFIGRSLAKYTGIAKQLGLIKMKGSRVLRSPNAVSKVLKEVSQARENYLLIVTGHQGEPGAILTRMANGELYDIGPRDTVVFSAGVIPNPLNVAQRYALETKLRMKGVRMIKNLHVSGHASKEDHRYLIRMLNPEYIVPAHGEFRMLTHYAELAEEEGYMIGKEVFISRNGHVVEIPGSLEG
